Data: publication PMC12102759 (2025)

B1: PIP5K1C peptide 642-657 (Phosphatidylinositol 4-phosphate 5-kinase type-1 gamma), 16-mer library wild type / TLN1 PTB (TLN1 Phosphotyrosine-binding (PTB) domain, residues 309-401) (parent complex)
chain 1: TDERSWVYSPLHYSAQ
chain 2: GVSFFLVKEKMKGKNKLVPRLLGITKECVMRVDEKTKEVIQEWNLTNIKRWAASPKSFTLDFGDYQDGYYSVQTTEGEQIAQLIAGYIDIILK

Variants of: B1
Test: proteomic peptide phage display deep mutational scan (ProP-PD DMS): M13 P8 16-mer library selected against immobilised GST-tagged bait for four days (rounds), NGS of the eluted pools per day and pseudo-replica; bait immobilised on MaxiSorp plates (10 µg), library pre-cleared on GST, 2 h binding at 4 °C, five washes; one round per day, days 1-4; value from days 2 and 3

Variant | screen value
chain 1 Y8L | 0.0129 average fractional NGS count over selection days 2 and 3 (reads of this peptide / all reads for the bait, averaged over …
chain 1 Y8K | 0.00106 average fractional NGS count over selection days 2 and 3 (reads of this peptide / all reads for the bait, averaged over …
chain 1 Y8G | 0.000458 average fractional NGS count over selection days 2 and 3 (reads of this peptide / all reads for the bait, averaged over …
chain 1 Y8Q | 0.00124 average fractional NGS count over selection days 2 and 3 (reads of this peptide / all reads for the bait, averaged over …
chain 1 Y8M | 0.00363 average fractional NGS count over selection days 2 and 3 (reads of this peptide / all reads for the bait, averaged over …
chain 1 Y8V | 0.0101 average fractional NGS count over selection days 2 and 3 (reads of this peptide / all reads for the bait, averaged over …
chain 1 Y8H | 0.0119 average fractional NGS count over selection days 2 and 3 (reads of this peptide / all reads for the bait, averaged over …
chain 1 Y8A | 0.00167 average fractional NGS count over selection days 2 and 3 (reads of this peptide / all reads for the bait, averaged over …
chain 1 Y8E | 0.002 average fractional NGS count over selection days 2 and 3 (reads of this peptide / all reads for the bait, averaged over …
chain 1 Y8S | 0.00106 average fractional NGS count over selection days 2 and 3 (reads of this peptide / all reads for the bait, averaged over …
chain 1 Y8T | 0.0121 average fractional NGS count over selection days 2 and 3 (reads of this peptide / all reads for the bait, averaged over …
chain 1 Y8N | 0.00782 average fractional NGS count over selection days 2 and 3 (reads of this peptide / all reads for the bait, averaged over …
chain 1 Y8W | 0.004 average fractional NGS count over selection days 2 and 3 (reads of this peptide / all reads for the bait, averaged over …
chain 1 Y8I | 0.00147 average fractional NGS count over selection days 2 and 3 (reads of this peptide / all reads for the bait, averaged over …
chain 1 R4P | 0.000771 average fractional NGS count over selection days 2 and 3 (reads of this peptide / all reads for the bait, averaged over …
chain 1 R4M | 0.00101 average fractional NGS count over selection days 2 and 3 (reads of this peptide / all reads for the bait, averaged over …
chain 1 R4W | 0.000409 average fractional NGS count over selection days 2 and 3 (reads of this peptide / all reads for the bait, averaged over …
chain 1 R4G | 0.00304 average fractional NGS count over selection days 2 and 3 (reads of this peptide / all reads for the bait, averaged over …
chain 1 R4Y | 0.00355 average fractional NGS count over selection days 2 and 3 (reads of this peptide / all reads for the bait, averaged over …
chain 1 R4D | 0.0132 average fractional NGS count over selection days 2 and 3 (reads of this peptide / all reads for the bait, averaged over …
chain 1 R4A | 0.00627 average fractional NGS count over selection days 2 and 3 (reads of this peptide / all reads for the bait, averaged over …
chain 1 H12G | 0.00249 average fractional NGS count over selection days 2 and 3 (reads of this peptide / all reads for the bait, averaged over …
chain 1 H12F | 0.00153 average fractional NGS count over selection days 2 and 3 (reads of this peptide / all reads for the bait, averaged over …
chain 1 H12Q | 0.0044 average fractional NGS count over selection days 2 and 3 (reads of this peptide / all reads for the bait, averaged over …
chain 1 H12P | 0.00102 average fractional NGS count over selection days 2 and 3 (reads of this peptide / all reads for the bait, averaged over …

Variant | screen value
chain 1 H12V | 0.00311 average fractional NGS count over selection days 2 and 3 (reads of this peptide / all reads for the bait, averaged over …
chain 1 H12A | 0.00137 average fractional NGS count over selection days 2 and 3 (reads of this peptide / all reads for the bait, averaged over …
chain 1 H12K | 0.000275 average fractional NGS count over selection days 2 and 3 (reads of this peptide / all reads for the bait, averaged over …
chain 1 H12D | 0.00129 average fractional NGS count over selection days 2 and 3 (reads of this peptide / all reads for the bait, averaged over …
chain 1 H12W | 0.000302 average fractional NGS count over selection days 2 and 3 (reads of this peptide / all reads for the bait, averaged over …
chain 1 H12T | 0.00303 average fractional NGS count over selection days 2 and 3 (reads of this peptide / all reads for the bait, averaged over …
chain 1 H12N | 0.00503 average fractional NGS count over selection days 2 and 3 (reads of this peptide / all reads for the bait, averaged over …
chain 1 H12M | 0.0016 average fractional NGS count over selection days 2 and 3 (reads of this peptide / all reads for the bait, averaged over …
chain 1 Y13M | 0.00125 average fractional NGS count over selection days 2 and 3 (reads of this peptide / all reads for the bait, averaged over …
chain 1 Y13N | 0.00437 average fractional NGS count over selection days 2 and 3 (reads of this peptide / all reads for the bait, averaged over …
chain 1 Y13Q | 0.00224 average fractional NGS count over selection days 2 and 3 (reads of this peptide / all reads for the bait, averaged over …
chain 1 Y13L | 0.00182 average fractional NGS count over selection days 2 and 3 (reads of this peptide / all reads for the bait, averaged over …
chain 1 Y13S | 0.00787 average fractional NGS count over selection days 2 and 3 (reads of this peptide / all reads for the bait, averaged over …
chain 1 Y13V | 0.0012 average fractional NGS count over selection days 2 and 3 (reads of this peptide / all reads for the bait, averaged over …
chain 1 Y13F | 0.0029 average fractional NGS count over selection days 2 and 3 (reads of this peptide / all reads for the bait, averaged over …
chain 1 Y13G | 0.000568 average fractional NGS count over selection days 2 and 3 (reads of this peptide / all reads for the bait, averaged over …
chain 1 Y13K | 0.000613 average fractional NGS count over selection days 2 and 3 (reads of this peptide / all reads for the bait, averaged over …
chain 1 Y13D | 0.0137 average fractional NGS count over selection days 2 and 3 (reads of this peptide / all reads for the bait, averaged over …
chain 1 Y13A | 0.000758 average fractional NGS count over selection days 2 and 3 (reads of this peptide / all reads for the bait, averaged over …
chain 1 Y13E | 0.000568 average fractional NGS count over selection days 2 and 3 (reads of this peptide / all reads for the bait, averaged over …
chain 1 Y13R | 0.00043 average fractional NGS count over selection days 2 and 3 (reads of this peptide / all reads for the bait, averaged over …
chain 1 E3F | 0.00327 average fractional NGS count over selection days 2 and 3 (reads of this peptide / all reads for the bait, averaged over …
chain 1 E3T | 0.00106 average fractional NGS count over selection days 2 and 3 (reads of this peptide / all reads for the bait, averaged over …
chain 1 E3G | 0.00191 average fractional NGS count over selection days 2 and 3 (reads of this peptide / all reads for the bait, averaged over …
chain 1 E3S | 0.00226 average fractional NGS count over selection days 2 and 3 (reads of this peptide / all reads for the bait, averaged over …

Variant | screen value
chain 1 E3N | 0.00147 average fractional NGS count over selection days 2 and 3 (reads of this peptide / all reads for the bait, averaged over …
chain 1 E3W | 0.0075 average fractional NGS count over selection days 2 and 3 (reads of this peptide / all reads for the bait, averaged over …
chain 1 E3V | 0.000642 average fractional NGS count over selection days 2 and 3 (reads of this peptide / all reads for the bait, averaged over …
chain 1 E3D | 0.000475 average fractional NGS count over selection days 2 and 3 (reads of this peptide / all reads for the bait, averaged over …
chain 1 E3P | 0.000178 average fractional NGS count over selection days 2 and 3 (reads of this peptide / all reads for the bait, averaged over …
chain 1 E3A | 0.000271 average fractional NGS count over selection days 2 and 3 (reads of this peptide / all reads for the bait, averaged over …
chain 1 E3I | 0.00159 average fractional NGS count over selection days 2 and 3 (reads of this peptide / all reads for the bait, averaged over …
chain 1 E3Y | 0.00103 average fractional NGS count over selection days 2 and 3 (reads of this peptide / all reads for the bait, averaged over …
chain 1 E3H | 0.00041 average fractional NGS count over selection days 2 and 3 (reads of this peptide / all reads for the bait, averaged over …
chain 1 E3M | 0.0019 average fractional NGS count over selection days 2 and 3 (reads of this peptide / all reads for the bait, averaged over …
chain 1 D2F | 0.00154 average fractional NGS count over selection days 2 and 3 (reads of this peptide / all reads for the bait, averaged over …
chain 1 D2M | 0.000501 average fractional NGS count over selection days 2 and 3 (reads of this peptide / all reads for the bait, averaged over …
chain 1 D2L | 0.0016 average fractional NGS count over selection days 2 and 3 (reads of this peptide / all reads for the bait, averaged over …
chain 1 D2S | 0.00166 average fractional NGS count over selection days 2 and 3 (reads of this peptide / all reads for the bait, averaged over …
chain 1 D2W | 0.0007 average fractional NGS count over selection days 2 and 3 (reads of this peptide / all reads for the bait, averaged over …
chain 1 D2H | 0.0024 average fractional NGS count over selection days 2 and 3 (reads of this peptide / all reads for the bait, averaged over …
chain 1 D2E | 0.00176 average fractional NGS count over selection days 2 and 3 (reads of this peptide / all reads for the bait, averaged over …
chain 1 D2I | 0.000155 average fractional NGS count over selection days 2 and 3 (reads of this peptide / all reads for the bait, averaged over …
chain 1 D2Y | 0.000691 average fractional NGS count over selection days 2 and 3 (reads of this peptide / all reads for the bait, averaged over …
chain 1 D2V | 0.00155 average fractional NGS count over selection days 2 and 3 (reads of this peptide / all reads for the bait, averaged over …
chain 1 D2R | 0.00137 average fractional NGS count over selection days 2 and 3 (reads of this peptide / all reads for the bait, averaged over …
chain 1 D2A | 0.0142 average fractional NGS count over selection days 2 and 3 (reads of this peptide / all reads for the bait, averaged over …
chain 1 L11E | 0.000382 average fractional NGS count over selection days 2 and 3 (reads of this peptide / all reads for the bait, averaged over …
chain 1 L11T | 0.00178 average fractional NGS count over selection days 2 and 3 (reads of this peptide / all reads for the bait, averaged over …
chain 1 L11F | 0.000354 average fractional NGS count over selection days 2 and 3 (reads of this peptide / all reads for the bait, averaged over …
